{
  "source": "patent US20120128639A1",
  "about": "“In Vitro Production Of Oligodendrocytes From Human Umbilical Cord Stem Cells” (UNIVERSITY OF CENTRAL FLORIDA RESEARCH FOUNDATION, INC., priority 2009, published 2012)",
  "molecules": {"B1": {"name": "EGF: growth factor in pre-induction and differentiation medium (protein, UniProt P01133 23-1207, looked up)", "Pro-epidermal growth factor": "PQHWSCPEGTLAGNGNSTCVGPAPFLIFSHGNSIFRIDTEGTNYEQLVVDAGVSVIMDFHYNEKRIYWVDLERQLLQRVFLNGSRQERVCNIEKNVSGMAINWINEEVIWSNQQEGIITVTDMKGNNSHILLSALKYPANVAVDPVERFIFWSSEVAGSLYRADLDGVGVKALLETSEKITAVSLDVLDKRLFWIQYNREGSNSLICSCDYDGGSVHISKHPTQHNLFAMSLFGDRIFYSTWKMKTIWIANKHTGKDMVRINLHSSFVPLGELKVVHPLAQPKAEDDTWEPEQKLCKLRKGNCSSTVCGQDLQSHLCMCAEGYALSRDRKYCEDVNECAFWNHGCTLGCKNTPGSYYCTCPVGFVLLPDGKRCHQLVSCPRNVSECSHDCVLTSEGPLCFCPEGSVLERDGKTCSGCSSPDNGGCSQLCVPLSPVSWECDCFPGYDLQLDEKSCAASGPQPFLLFANSQDIRHMHFDGTDYGTLLSQQMGMVYALDHDPVENKIYFAHTALKWIERANMDGSQRERLIEEGVDVPEGLAVDWIGRRFYWTDRGKSLIGRSDLNGKRSKIITKENISQPRGIAVHPMAKRLFWTDTGINPRIESSSLQGLGRLVIASSDLIWPSGITIDFLTDKLYWCDAKQSVIEMANLDGSKRRRLTQNDVGHPFAVAVFEDYVWFSDWAMPSVMRVNKRTGKDRVRLQGSMLKPSSLVVVHPLAKPGADPCLYQNGGCEHICKKRLGTAWCSCREGFMKASDGKTCLALDGHQLLAGGEVDLKNQVTPLDILSKTRVSEDNITESQHMLVAEIMVSDQDDCAPVGCSMYARCISEGEDATCQCLKGFAGDGKLCSDIDECEMGVPVCPPASSKCINTEGGYVCRCSEGYQGDGIHCLDIDECQLGEHSCGENASCTNTEGGYTCMCAGRLSEPGLICPDSTPPPHLREDDHHYSVRNSDSECPLSHDGYCLHDGVCMYIEALDKYACNCVVGYIGERCQYRDLKWWELRHAGHGQQQKVIVVAVCVVVLVMLLLLSLWGAHYYRTQKLLSKNPKNPYEESSRDVRSRRPADTEDGMSSCPQPWFVVIKEHQDLKNGGQPVAGEDGQAADGSMQPTSWRQEPQLCGMGTEQGCWIPVSSDKGSCPQVMERSFHMPSYGTQTLEGGVEKPHSLLSANPLWQQRALDPPHQMELTQ", "modifications": "Pro-epidermal growth factor"}},
  "test_system": "human multipotent progenitor cells (MLPCs) from umbilical cord",
  "details": "3D environment; presence or absence in medium",
  "procedure": "MLPCs were seeded on DETA-coated glass coverslips (18 mm) at a density of 4×10^3 cells/cm^2 in growth medium. After 3 days, at about 60% confluency, cells were incubated for 24 hours in pre-induction medium, consisting of DMEM, 15% FBS. FGF-2, EGF (20 ng/ml each, R & D Systems, Minneapolis, Minn.) and PDGF-AA (10 ng/ml, Chemicon International, Temecula, Calif.). To initiate differentiation, the pre-induction medium was removed, the cells were washed 2× with Hanks' balanced salts solution (Gibco BRL) and transferred to serum-free differentiation medium.\nConstruction of 3D Environment MLPCs were plated on DETA-coated glass coverslips (18 mm) in growth medium. At about 60% confluence, growth medium was replaced with pre-induction medium. […]\nPhase-contrast images were taken with a commercial Nikon Coolpix 990 camera using the Zeiss Axiovert S100 microscope. Pictures were analyzed using Scion Image Software (Scion Corp., Frederick, Md.).\nThe morphological and immunocytochemical quantification was performed on undifferentiated stem cells or cells during various differentiation stages. […] All the marker-positive cells were counted, as well as the total number of cells in these views. At least three coverslips in each group were quantified and data were expressed as average±standard deviation (SD). Statistical differences between different experimental groups were analyzed by Student's t-test.",
  "data": [
    {"molecule": "B1", "values": [
      {"measurement": "need of the growth factor for process formation", "result": "not essential"}
    ]}
  ]
}
